From publication PMC6945063 (2019)

Target: His‐GABARAP‐L2 S87/88D (human, UniProt P60520 1-117, S87/88D | S87/88D)
Assay: BLI

B1: GST‐ATG4A (enzyme)
chain: MESVLSKYEDQITIFTDYLEEYPDTDELVWILGKQHLLKTEKSKLLSDISARLWFTYRRKFSPIGGTGPSSDAGWGCMLRCGQMMLAQALICRHLGRDWSWEKQKEQPKEYQRILQCFLDRKDCCYSIHQMAQMGVGEGKSIGEWFGPNTVAQVLKKLALFDEWNSLAVYVSMDNTVVIEDIKKMCRVLPLSADTAGDRPPDSLTASNQSKGTSAYCSAWKPLLLIVPLRLGINQINPVYVDAFKECFKMPQSLGALGGKPNNAYYFIGFLGDELIFLDPHTTQTFVDTEENGTVNDQTFHCLQSPQRMNILNLDPSVALGFFCKEEKDFDNWCSLVQKEILKENLRMFELVQKHPSHWPPFVPPAKPEVTTTGAEFIDSTEQLEEFDLEEDFEILSV
- Kd: 24 µM
